The source of these data is publication PMC9181795, “Ibuprofen Favors Binding of Amyloid-β Peptide to Its Depot, Serum Albumin” (International Journal of Molecular Sciences, 2022).

“Also recorded” adds a separate entry of the source.

The test system of assay [1] is HSA–Aβ interaction. Details: method as in 5 sources, ref [12] = [12]; PMID 30685090; doi:10.1016/j.bbrc.2019.01.081; 12. Litus E.A. Kazakov A.S. Sokolov A.S. Nemashkalova E.L. Galushko E.I. Dzhus U.F. Marchenkov V.V. Galzitskaya O.V. Permyakov E.A. Permyakov S.E. The binding of monomeric amyloid beta peptide to seru ||| ref [12],[13] = [12]; PMID 30685090; doi:10.1016/j.bbrc.2019.01.081; 12. Litus E.A. Kazakov A.S. Sokolov A.S. Nemashkalova E.L. Galushko E.I. Dzhus U.F. Marchenkov V.V. Galzitskaya O.V. Permyakov E.A. Permyakov S.E. The binding of monomeric amyloid beta peptide to seru || [13]; PMID 34072751; doi:10.3390/ijms22115896; 13. Litus E.A. Kazakov A.S. Deryusheva E.I. Nemashkalova E.L. Shevelyova M.P. Nazipova A.A. Permyakova M.E. Raznikova E.V. Uversky V.N. Permyakov S.E. Serotonin promotes serum albumin interaction with ||| ref [7] = [7]; PMID 10347147; doi:10.1074/jbc.274.23.15990; 7. Bohrmann B. Tjernberg L. Kuner P. Poli S. Levet-Trafit B. Naslund J. Richards G. Huber W. Dobeli H. Nordstedt C. Endogenous proteins controlling amyloid beta-peptide polymerization. Possible implic ||| ref [14] = [14]; PMID 29409811; doi:10.1016/j.jmb.2018.01.008; 14. Bode D.C. Stanyon H.F. Hirani T. Baker M.D. Nield J. Viles J.H. Serum albumin’s protective inhibition of amyloid-β fiber formation is suppressed by cholesterol, fatty acids and warfarin J. Mol. Bi ||| ref [13] = [13]; PMID 34072751; doi:10.3390/ijms22115896; 13. Litus E.A. Kazakov A.S. Deryusheva E.I. Nemashkalova E.L. Shevelyova M.P. Nazipova A.A. Permyakova M.E. Raznikova E.V. Uversky V.N. Permyakov S.E. Serotonin promotes serum albumin interaction with. The conditions noted are these: cited from earlier work; for effect on HSA affinity toward monomeric Aβ: ref [12],[13]; for effect of HSA ligand on HSA–Aβ interaction: ref [14].

Assay [2] has as its target A21G mutant of amyloid-β peptide 1-40, Flemish variant of Aβ40 (human). In words: SPR; Aβ immobilised by amine coupling on a ProteOn GLH chip (6000-9000 RU), non-covalently bound Aβ washed off (2% SDS, 100 mM HCl, 20 mM EDTA pH 8.0 with 1% SDS) to leave monomeric Aβ; analyte 0.5-8 uM HSA; no IBU; 25 °C; 20 mM Tris-HCl, 140 mM NaCl, […] KCl, 1 mM MgCl2, […] CaCl2, pH 7.4; heterogeneous ligand model (two ligand populations L1 and L2). (In SPR one partner is held on a chip, and binding of the other changes the refractive index at the surface.)

The target is the same in assay [3]. In words: SPR; as a1, but with 100 uM ibuprofen (IBU) in the running buffer: Aβ immobilised by amine coupling and washed to monomer; analyte 0.5-8 uM HSA; 25 °C; 20 mM Tris-HCl, 140 mM NaCl, […] KCl, 1 mM MgCl2, […] CaCl2, pH 7.4; heterogeneous ligand model (two ligand populations L1 and L2).

As for `N[C@@H](Cc1c[nH]c2ccccc12)C(=O)O` [tryptophan], in assay [1] (ref [13]), the “effect on the HSA–Aβ40/Aβ42 equilibrium” value was “does not affect the HSA–Aβ40/Aβ42 equilibrium”.

Turning to `NCCc1c[nH]c2ccc(O)cc12` [serotonin], in assay [1], the “effect on HSA affinity toward monomeric Aβ” value is on record as “enhance HSA affinity toward monomeric Aβ”.

For the compound “human serum albumin (from UniProt P02768 25-609) (natural protein)”, in assay [2], the Kd2 (ligand population L2) turned out to be 670 pM, the ka1 (ligand population L1) turned out to be 30000 M⁻¹ s⁻¹ and the kd2 (ligand population L2) turned out to be 1.8e-06 s⁻¹. In assay [3], this compound came in with a Kd1 (ligand population L1) of 8.2 pM, a ka1 (ligand population L1) of 25000 M⁻¹ s⁻¹, a kd1 (ligand population L1) of 2e-07 s⁻¹ and a kd2 (ligand population L2) of 1.03e-06 s⁻¹.

On to `CCCCC/C=C\C/C=C\CCCCCCCC(=O)O` [linoleic acid], for which, in assay [1], the “effect on HSA affinity toward monomeric Aβ” value is reported as “enhance HSA affinity toward monomeric Aβ”.

Turning to `CC(C)CCC[C@@H](C)[C@H]1CC[C@H]2[C@@H]3CC=C4C[C@@H](O)CC[C@]4(C)[C@H]3CC[C@]12C` [cholesterol], in assay [1], the “effect of HSA ligand on HSA–Aβ interaction” value was “exert the opposite effect; also recorded: act in the opposite direction”.

As to `CCCCC/C=C\C/C=C\C/C=C\C/C=C\CCCC(=O)O` [arachidonic acid, arachidonic], the “effect on HSA affinity toward monomeric Aβ” value in assay [1] is given as “enhance HSA affinity toward monomeric Aβ”.

For `CC(=O)CC(c1ccccc1)c1c(O)c2ccccc2oc1=O` (stereo not shown) [warfarin], the “effect of HSA ligand on HSA–Aβ interaction” value in assay [1] is given as “exert the opposite effect; also recorded: act in the opposite direction”.
